According to US20240309090A1, “MODULATION OF ANDROGEN SIGNALING TO INNATE IMMUNE KILLING OF PROSTATE CANCER” (Brown University, priority 2023, published 2024):

B1: monalizumab (antibody, chains of the INN, looked up, V domains shown)
VH: QVQLVQSGAEVKKPGASVKVSCKASGYTFTSYWMNWVRQAPGQGLEWMGRIDPYDSETHYAQKLQGRVTMTTDTSTSTAYMELRSLRSDDTAVYYCARGGYDFDVGTLYWFFDVWGQGTTVTVSS
VL: DIQMTQSPSSLSASVGDRVTITCRASENIYSYLAWYQQKPGKAPKLLIYNAKTLAEGVPSRFSGSGSGTDFTLTISSLQPEDFATYYCQHHYGTPRTFGGGTKVEIK

How the values were obtained:
PC3 cell line = experiment: Flow cytometry of HLA-E surface expression on AR-negative PC3; assay type: cell-based; details: for surface expression of HLA-E: PC3, DHT 30 nM, vorinostat 0.3 μM, panobinostat 3 nM, 48 h
Text: (§1) To evaluate the modulation of the androgen receptor and tumor HLA-E expression, we astably transduced AR negative cell lines PC3 and DU145 with an Androgen Response Element (ARE) GFP reporter (FIG. 16H). […] Using AR+ constructed cell lines, PC3 and DU145, we sought to determine the dependence of HLA-E expression and possible modulation by AR. […] Although potential therapies targeting immune enhancement are being explored, the expression of exhaustion markers such as PD-1, NKG2A, and potential engaging ligands that diminish their cytotoxic function limits their application. Exploring these factors with new combination approaches, such as ARi and anti-NKG2A, and understanding the modulation of its targets upon treatment is key in overcoming immune-resistant scenarios, especially in prostate cancer.
Experiments were conducted with noncytotoxic doses of vorinostat (0.3 μM) and panobinostat (3 nM).
(§2) PCa cells were plated at a density of 3×10^5 cells per well of a 6-well plate and adhered overnight. […] After treatment, cells were trypsinized, stained, and incubated (Cell Staining Buffer SouthernBiotech #0225-01S) with the corresponding antibody for 45-60 min at 4° C. Viability dye was added with each run. NK-92 cells and patient-derived cells were stained similarly. Markers used for experiments included: Thermofisher HLA-E Monoclonal Antibody (3D12HLA-E), Alexa Fluor™ 488, eBioscience™, CD274 (PD-L1, B7-H1) Monoclonal Antibody (MIH1), eFluor™ 450, eBioscience™, Cell Signaling PD-1 (D4W2J) XPR Rabbit mAb, SYTOX™ Orange Dead Cell Stain, for flow cytometry, BioLegend APC anti-human CD159a (NKG2A) Antibody #375108, BioLegend APC anti-human CD69 Antibody #310909, BioLegend Alexa Fluor® 647 anti-human CD137 (4-1BB) [4B4-1] #309823. For staining of the patient-derived PBMCs and subsequent NK cell characterization, the following antibodies were used: BioLegend Anti-Perforin Mouse Monoclonal Antibody (PerCP Cy5.50, clone: dG9) #308113, BioLegend Anti-Granzyme B Mouse Monoclonal Antibody (FITC, clone: GB11) #515403, BioLegend Anti-CD56 Mouse Monoclonal Antibody (Alexa Fluor® 700, clone: 5.1H1) #362521, and BioLegend (PE anti-human CD45 Antibody) #304008.

DU145 = experiment: Flow cytometry of HLA-E surface expression on non-AR-transduced DU145; assay type: cell-based
Text: as §1
PCa cells were plated at a density of 3×10^5 cells per well of a 6-well plate and adhered overnight. […] After treatment, cells were trypsinized, stained, and incubated (Cell Staining Buffer SouthernBiotech #0225-01S) with the corresponding antibody for 45-60 min at 4° C. Viability dye was added with each run. NK-92 cells and patient-derived cells were stained similarly. […]

NK cells = experiment: Flow cytometry of NKG2A and PD-1 surface expression on NK cells; assay type: cell-based
Description: as §2
Methods: PCa cell lines (LNCaP, 22Rv1 [ARv7 mutation], DU145[AR-], PC3 [AR-]) were cocultured with NK-92 cells and treated with ARi (enzalutamide [enza] and darolutamide [daro]) or in combination with anti-NKG2A antibody monalizumab. Immune cell-mediated tumor cell killing assays and multiplexed cytokine profiling were performed. NKc expression of NKG2A and PCa cells expression of HLA-E were investigated by flow cytometry. The AR-negative cell lines (PC3 and DU145) were stably transduced with a functional AR pathway to evaluate the modulation of HLA-E by AR. The activation status of peripheral blood NKc isolated from patients with PCa before and post-initiation of androgen deprivation therapy (ADT) was investigated by flow cytometry.

LNCaP cells = experiment: Flow cytometry of HLA-E / PD-L1 surface expression on LNCaP; assay type: cell-based; details: LNCaP, DHT 30 nM, vorinostat 0.3 μM, panobinostat 3 nM, 48 h
Description: The effect of ARi on the NKG2A ligand, HLA-E, was investigated by flow cytometry on PCa cells treated with enza and daro.
as §2
The effect of androgen pathway inhibitors in the expression of HLA-E, a negative and key negative modulator of NK cell function, was also performed using Flow Cytometry. PD-L1 expression levels were also measured. In advance, The NK cell immune checkpoint inhibitor monalizumab (targeting NKG2A and its ligand, HLA-E) was also combined with ARi.

LNCaP [1] = experiment: Co-culture of LNCaP with NK-92 cells, immune-mediated tumor cell killing; assay type: cell-based; details: LNCaP + NK-92 1:1, enzalutamide 10 μM, FIG. 15A
Description: (§3) They were co-treated with enzalutamide ([…]) or darolutamide (20 μM) for 48 h. Doses of AR inhibitors (ARi) used in the co-culture experiments were based on previous IC50 experiments. […] The immune-mediated effect of NK-92 on the PCa cell lines in the presence of enzalutamide (immune enhancement death) was normalized to baseline immune and tumor cell killing in each condition [(tumor cells+immune cells)-tumor baseline death=baseline immune death]. […] Cytokine analysis was performed to investigate the activation phenotype of NK cells when treated with ARi.
(§4) Prostate cancer cell lines were dyed with the blue CMAC live-cell dye (Thermo Fisher Scientific #C2110, per manufacturer protocol). Blue-fluorescent cancer cells were plated at a density of 10,000 cells per well of a 48-well plate. NK-92 cells were dyed with green CMFDA (Cayman Chemical Company #19583, per manufacturer protocol). Green-fluorescent NK-92 cells were added to the blue-fluorescent cancer cells at a 1:1 ratio. Enzalutamide (10 μM), darolutamide (20 μM), and 1 μM ethidium homodimer (EthD-1) were added at the same time as the NK cells. After 24 hours of co-culture, images of live cancer cells, live NK cells, and dead cells were taken using a fluorescent microscope. The co-culture experiments were run with internal control conditions and as a single treatment. Normalization was performed after analysis to take baseline death conditions into each experiment run. […] Cell adhered over 24 h, and when patient-derived NK cells were added, a control well was trypsinized, and cells resuspended and counted to adjust a 1:1 ratio before treatment addition. […]
(§5) Live cancer cells, NK cells, and dead cells were quantified using FIJI (Fiji Is Just ImageJ) software for images derived from fluorescent co-culture images. Images from the ImageXpress system were quantified using MetaXpress cytoplasmic/nuclear staining software. The percent of dead tumor cells in each well was quantified, and this percentage was normalized by subtracting baseline death from cancer cell-only wells, NK cell-only wells, or both.

22Rv1 = experiment: Co-culture of 22Rv1 with NK-92 cells, immune-mediated tumor cell killing; assay type: cell-based; details: 22Rv1 + NK-92 1:1, enzalutamide 10 μM, FIG. 15B
Description: as §3, §4, §5

[2] = system: PC cell lines (LNCap, 22Rv1, DU145, PC3); experiment: Co-cultures of PC cell lines with NK cells (1:1), immune-mediated PC killing; assay type: cell-based
Description: (§6) Prostate cancer cell lines were dyed with the blue CMAC live-cell dye (Thermo Fisher Scientific #C2110, per manufacturer protocol). Blue-fluorescent cancer cells were plated at a density of 10,000 cells per well of a 48-well plate. NK-92 cells were dyed with green CMFDA (Cayman Chemical Company #19583, per manufacturer protocol). Green-fluorescent NK-92 cells were added to the blue-fluorescent cancer cells at a 1:1 ratio. Enzalutamide (10 μM), darolutamide (20 μM), and 1 μM ethidium homodimer (EthD-1) were added at the same time as the NK cells. After 24 hours of co-culture, images of live cancer cells, live NK cells, and dead cells were taken using a fluorescent microscope. The co-culture experiments were run with internal control conditions and as a single treatment. Normalization was performed after analysis to take baseline death conditions into each experiment run. To optimize the high output of these experiments, a subset of co-cultures were performed using the ImageXpress® Micro Confocal High-Content Imaging. This analysis maintained the experiment conditions, drug concentrations, and the dyeing process. When GFP-labeled tumor cells were used for culture assays, they were added in a 1:1 ratio. Cell adhered over 24 h, and when patient-derived NK cells were added, a control well was trypsinized, and cells resuspended and counted to adjust a 1:1 ratio before treatment addition. The experiments with blocking antibodies were performed using the ImageXpress system. TRAIL blocking ab was purchased from Santa Cruz TRAIL Antibody (RIK-2): sc-56246, and IFN gamma blocking Monoclonal Antibody (NIB42, #6-7318-81) was purchased from Thermo Fisher. The blocking mAb was added when NK cells were combined with tumor cells.
as §5, with “both. A two-way ANOVA was used to calculate the interaction effect between drug treatment and NK cells.” for “both.”
In groups with a significant interaction effect, data was further normalized in the cancer cell+NK cells+drug treatment well by subtracting out death in the cancer cell+drug well. A one-way ANOVA and multiple comparison analysis with subsequent t-tests were used to calculate the statistical significance of the difference between this group and the cancer cell+NK cell well. GraphPad Prism Version 9.5.1 was used for statistical analysis.
We conducted cell viability assays to investigate the effect of Enza and Daro on PC cells (LNCap, 22Rv1 [ARv7 mutation], DU145, PC3 [AR-]) and NK-92 cells. We performed co-culture experiments with PC and NK cells in a 1:1 ratio and analyzed immune cell-mediated tumor cell killing (ImageXpress Confocal HT). Cytokine profiling (Luminex 200) of culture supernatants was performed following treatment with ARi−/+ and anti-IFN-γ antibodies. In vivo studies were performed in NCr Nude mice harboring subcutaneous PC tumors treated orally with Daro (50 mg/kg/bid) and Enza (30 mg/kg/bid) for 4 weeks.
We performed ATP-based (CellTiter-Glo) viability assays to investigate the effect of Enzalutamide and Darolutamide on PC cell lines (LNCap, 22Rv1 [ARv7 mutation], DU145, PC3 [AR-]) and NK-92 cells. We performed co-culture experiments with PC and NK cells at a 1:1 ratio throughout 4 h, 6 h, 12 h, 24 h, and 48 h periods. We analyzed immune cell-mediated tumor cell killing in the presence of Enza and Darolutamide (ImageXpress Confocal HT). Western Blotting was performed to evaluate different protein expression levels and their regulation related to sensitivity in mediating immune-mediated cell killing (apoptotic family). […]

LNCaP [3] = experiment: Co-culture of GFP-expressing LNCaP with patient-derived NK cells; assay type: cell-based, human
Text: (§7) To validate an additive effect of ARi and monalizumab enhancing NK cell cytotoxicity, we performed a co-culture assay with GFP-labeled PCa cell lines (including ARi-sensitive LNCaP and ARi-resistant PC3) and patient-derived NK cells. The NK cells were negatively selected from whole blood from patients with metastatic prostate cancer before initiation of androgen deprivation therapy. The addition of enzalutamide or darolutamide enhanced the cytotoxicity of NK cells, and the combination of ARi with monalizumab potentiated immune killing (FIG. 15C-D).
as §6
(§8) NK cells were isolated from patients harboring metastatic castration-sensitive prostate cancer using the MojoSort™ Human NK Cell Isolation Kit (#480053). Patients signed informed consent for IRB-approved research protocol number 2055-13, allowing the collection of peripheral blood samples. […] The untouched NK cells (CD56+, CD3−) were collected, and the purity of isolation was determined by flow cytometry using anti-CD56 (BioLegend 362503). […]

PC3 = experiment: Co-culture of GFP-expressing PC3 with patient-derived NK cells; assay type: cell-based, human
Text: as §7, §6, §8

| Molecule | surface expression of HLA-E (PC3 cell line) | HLA-E expression (PC3 cell line; non-AR-transduced PC3) | HLA-E expression (DU145) | surface expression of NKG2A (NK cells) | surface expression of PD-1 (NK cells; MFI) | expression of HLA-E upon DHT treatment with HDACi (LNCaP cells) | NK cell killing of PCa cells (immune enhancement) (LNCaP [1]) | NK cell killing of PCa cells (immune enhancement) (22Rv1) | immune-mediated NK cell killing of PCa cells (in words) ([2]; co-culture PCa + NK-92 cells) | ARi immune enhancement effect ([2]; co-cultures of PC cell lines and NK cells with Enzalutamide (API), [T] plus monalizumab) | killing of PCa cells by patient-derived NK cells (in words) (LNCaP [3]; GFP LNCaP, 1:1, 24 h, monalizumab in combination with enza and daro) | median number of cells in co-culture (LNCaP [3]; LNCaP and NK cells, monalizumab added to darolutamide or enzalutamide, FIG. 3B) | killing of PCa cells by patient-derived NK cells (in words) (PC3; GFP PC3, 1:1, 24 h, monalizumab in combination with enza and daro) | median number of cells in co-culture (PC3; PC3 and NK cells, monalizumab added to darolutamide or enzalutamide, FIG. 3A) |
| --- | --- | --- | --- | --- | --- | --- | --- | --- | --- | --- | --- | --- | --- | --- |
| C[C@]12CCC(=O)C[C@@H]1CC[C@@H]1[C@@H]2CC[C@]2(C)[C@@H](O)CC[C@@H]12 [DHT, dihydrotestosterone] | did not alter | 11.28% | 1.84% | reversed | reversed | – | – | – | – | – | – | – | – | – |
| O=C(CCCCCCC(=O)Nc1ccccc1)NO [vorinostat] | did not change | – | – | – | – | did not change significantly | – | – | – | – | – | – | – | – |
| B1 | – | – | – | – | – | – | 19.89% | 18.29% | did not enhance | 43.92% | potentiated | decreases | potentiated | decreases |
